According to the supplement of paper PMC9732359:
± gives the uncertainty stated by the source.

Assay: protein stability index of a GFP-peptide fusion (yeast GPS) (PSI 1-4); higher = more stable; sorted into four equal gates, so the index is relative within each strain
In short: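 Yeast carrying a pooled library were grown to mid-log phase in leucine-free medium. Each library plasmid expresses Cherry and has a tiled 17-residue yeast protein peptide fused downstream of GFP. Cells were sorted into four equal gates by GFP/Cherry ratio, and plasmids from each gate were PCR-amplified, Illumina-sequenced and assigned to strains by barcode. Summing, across gates, the read frequency times the gate number gave each peptide's protein stability index.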

Sequence	protein stability index (doa10∆)	protein stability index (pdr5∆)	protein stability index (san1∆)	protein stability index (ubr1∆)
IIKRSNGQSLSPVRSDS [YMR153W/NUP53]	2.64 ± 0.093	2.87 ± 0.058	2.76 ± 0.064	2.81 ± 0.037
CKVVAEMIRGRSPEEIR [SKP1]	–	1.95 ± 0.15	2.21 ± 0.29	1.49 ± 0.11
CGAGVFLANHKDRLYCG [RPS31]	2.19 ± 0.097	1.46 ± 0.16	1.06 ± 0.21	2.5 ± 0.2
HCITSITLALADAGIEL [MTR3]	1.5 ± 0.071	1.86 ± 0.094	–	1.55 ± 0.097
YISAELYAQLRENGLVP [SNU114]	2.38 ± 0.068	2.21 ± 0.071	2.48 ± 0.1	2.73 ± 0.058
LPDELTLSYDDISAAIV [DLS1]	2.56 ± 0.055	2.53 ± 0.061	2.58 ± 0.073	2.67 ± 0.05
MMVSYPKIDEDDTWYNL [AAR2]	3.29 ± 0.063	3.34 ± 0.06	3.25 ± 0.048	3.35 ± 0.045
DATFAGHSLGEYAALAS [FAS1]	2.73 ± 0.14	3 ± 0.08	2.83 ± 0.11	2.49 ± 0.073
AFLSKVPEFFQTANEKH [SRP14]	3.21 ± 0.12	3.21 ± 0.17	3.37 ± 0.11	3.09 ± 0.26
EQTTGGNNKDLKNTMQY [RPB4]	3.24 ± 0.11	3.09 ± 0.082	2.65 ± 0.17	3.18 ± 0.19
YDPKDGLYKMMEERDGA [AAR2]	3.41 ± 0.12	2.94 ± 0.11	3.4 ± 0.092	–
QQPNPLHGLTPTAKDVE [GAL11]	3.17 ± 0.053	2.98 ± 0.041	3.15 ± 0.06	3.07 ± 0.033
AKSTPNTNPSPLKTQTK [GAL11]	2.82 ± 0.051	2.94 ± 0.046	2.64 ± 0.05	2.91 ± 0.038
NLHAEGWPKLQLGPQTP [ECM29]	2.43 ± 0.18	2.74 ± 0.18	–	2.9 ± 0.24
VAGAIRAGIIIAKLSVI [RPS2]	1.91 ± 0.1	2.35 ± 0.098	1.4 ± 0.13	2.65 ± 0.083
LIDSLPGVDVSAEEQLR [SRB7]	2.59 ± 0.064	2.23 ± 0.055	1.96 ± 0.068	1.84 ± 0.043
LLSLISTTAALQSISSL [RPN7]	1.94 ± 0.053	1.95 ± 0.05	1.77 ± 0.075	2.24 ± 0.049
KAELIKPIQNGEIIDIS [ARP9]	3.31 ± 0.087	3.02 ± 0.1	3.33 ± 0.067	2.92 ± 0.092
MSNIVGIEYNRVTNTTS [RPC40]	3.36 ± 0.22	3.33 ± 0.13	2.73 ± 0.08	2.88 ± 0.096
TPEYAAEKVKVRDELRK [UBP6]	1.28 ± 0.068	1.61 ± 0.083	1.42 ± 0.14	1.46 ± 0.07
LAGKVGSIRVHKSGKLS [RPC53]	1.45 ± 0.058	1.59 ± 0.072	–	1.28 ± 0.06
QPKRNLSRYVKWPEYVR [RPL8A]	2.87 ± 0.096	2.98 ± 0.046	3.06 ± 0.06	2.99 ± 0.066
SILEEKIAVLNNDKREI [SMC1]	3.21 ± 0.071	3.38 ± 0.057	3.25 ± 0.051	3.33 ± 0.061
PKAVVDHINGSGKRKPT [GAL11]	2.25 ± 0.076	2.81 ± 0.064	1.52 ± 0.11	2.16 ± 0.079
DVQKSSDSSSEDEVKVE [YLR335W/NUP2]	2.7 ± 0.098	2.87 ± 0.092	2.69 ± 0.099	2.31 ± 0.044

Sequence	protein stability index (doa10∆)	protein stability index (pdr5∆)	protein stability index (san1∆)	protein stability index (ubr1∆)
FGFSSSGTAATGAASNQ [YOR098C/NUP1]	2.69 ± 0.11	3.41 ± 0.13	–	3.31 ± 0.07
KPAFSFGINTNTTKTAD [YLR335W/NUP2]	2.98 ± 0.098	3.09 ± 0.1	3.11 ± 0.063	3.46 ± 0.064
KYPARRIHTNDNDIMNL [SSN3]	2.83 ± 0.074	3.06 ± 0.072	2.98 ± 0.077	2.9 ± 0.059
QDRHVIFLAERRILPKP [RPS7A]	2.53 ± 0.23	2.93 ± 0.12	2.86 ± 0.27	2.73 ± 0.088
SQDATKVDATPEESKPI [YLR335W/NUP2]	2.87 ± 0.12	3.17 ± 0.089	2.81 ± 0.08	3.18 ± 0.06
GNPLSIGTLEEIIDDDH [RPT2]	3.28 ± 0.1	3.43 ± 0.14	3.14 ± 0.076	3.24 ± 0.17
DDLERLKKIRAHRGIRH [RPS18A]	1.47 ± 0.18	1.31 ± 0.1	1.21 ± 0.18	1.31 ± 0.18
VFYQVTPEDADEEEDDE [RPL22B]	1.84 ± 0.057	2.33 ± 0.068	2.63 ± 0.057	1.99 ± 0.071
ICIVGGYDDFQEEGSFE [FAS2]	2.98 ± 0.16	2.5 ± 0.11	3.5 ± 0.1	–
KLVEIIWNDVVYGEGTS [YJL039C/NUP192]	3.46 ± 0.11	3.26 ± 0.11	3.39 ± 0.098	3.35 ± 0.058
RAKKTRALRRALTKFEA [RPL35A]	–	–	–	3.11 ± 0.15
TPNTNSNSTPNANQQFL [SWI1]	3.11 ± 0.054	3.15 ± 0.047	2.93 ± 0.053	3.1 ± 0.035
FLKEVLSDLSSPVQDWN [YML103C/NUP188]	2.92 ± 0.088	3.03 ± 0.097	2.76 ± 0.11	2.96 ± 0.068
SYHLWPSFTDEQWITIE [PRP8]	2.44 ± 0.089	2.66 ± 0.061	2.82 ± 0.09	2.57 ± 0.057
YFGENSSISWKNIAQCL [YJL039C/NUP192]	1.95 ± 0.084	2.57 ± 0.066	1.93 ± 0.064	2.11 ± 0.062
NLLVLRGKNEIIQNAQR [RPO21]	1.56 ± 0.11	1.41 ± 0.092	1.69 ± 0.16	1.26 ± 0.085
MSVPAIAPRRKRLADGL [DIS3]	3.37 ± 0.095	3.18 ± 0.11	3.26 ± 0.078	3.11 ± 0.063
SRDELIRLAKTLKKNNV [RPN10]	1.77 ± 0.086	1.81 ± 0.091	2.42 ± 0.17	2.07 ± 0.089
SKSPSEWQDIIHQREQE [CSE2]	3.33 ± 0.16	3.31 ± 0.12	3.25 ± 0.085	3.2 ± 0.14
TTQRRYEKAQKDLENAQ [SMC1]	3.05 ± 0.098	3.31 ± 0.069	3.2 ± 0.052	3.14 ± 0.1
ETAERNIIQAKRDAKAA [RPL7A]	–	2.06 ± 0.21	1.93 ± 0.16	–
DTADEAKTLIPSLNNKI [RPB4]	2.95 ± 0.075	3.15 ± 0.078	3.1 ± 0.063	3.1 ± 0.078
IMDNDPVLFNRQPSLHK [RPO21]	1.77 ± 0.074	2.17 ± 0.069	2.26 ± 0.23	1.84 ± 0.074
GTYIQERNPSQRPQRRY [RPS10B]	3.01 ± 0.052	3.1 ± 0.042	3.09 ± 0.033	3.23 ± 0.036
LSKVAALSGNEGDASPF [RPB2]	1.91 ± 0.046	2.79 ± 0.052	2.15 ± 0.083	2.59 ± 0.071
